Assay results from article PMC4491846.

Molecular target: Tulane virus (TV) virions, CsCl gradient-purified (Tulane virus)

Maackia amurensis leukoagglutinin (MAL), biotinylated (from UniProt P0DKL3 30-278) (natural protein)
TV infectivity in LLC-MK2 cells by plaque assay after treatment with MAL (dose series up to 100 μg/mL; maximum enhancement at 50 μg/mL), percent of the untreated control: 262%
